The text below walks through data of the Immune Epitope Database (IEDB).

Experiment [1] has as its target HLA-A*30:01. The experiment in a line: IEDB peptide-MHC binding, purified MHC/competitive/fluorescence; filed as Kd, often an IC50 or EC50 that approximates it; ≥ and ≤ were set here for values at or beyond the usual limits of such assays.
For experiment [2], the target named is HLA-A*26:01. The experiment is described as above. The note with it: source organism: Variola virus.
Experiment [3] deals with HLA-B*27:05. The experiment in a line: IEDB peptide-MHC binding, purified MHC/direct/fluorescence; filed as Kd, often an IC50 or EC50 that approximates it; ≥ and ≤ were set here for values at or beyond the usual limits of such assays.
Experiment [4] addresses HLA-A*31:01. Described as above.
Experiment [5] addresses HLA-B*48:01. The description is as above.
Experiment [6] deals with HLA-A*01:01. Described as above.
Experiment [7] addresses HLA-B*08:03. The experiment is described as above.
In experiment [8] the target is HLA-B*15:01. Described as above.
The target of experiment [9] is HLA-B*08:01. The experiment is described as above.
The target in experiment [10] is HLA-B*15:02. The description is as above.
The target in experiment [11] is HLA-A*02:01. The description is as above.
Experiment [12] addresses HLA-B*07:02. The experiment is described as above.
Experiment [13] concerns the target HLA-B*15:09. The description is as above.
The target in experiment [14] is HLA-B*15:17. Described as above.
For experiment [15], the target named is HLA-B*58:01. Described as above.
The target of experiment [16] is HLA-B*46:01. The experiment is described as above.
Experiment [17] deals with HLA-A*69:01. Described as above.
The target of experiment [18] is HLA-A*68:02. Described as above.
The target of experiment [19] is HLA-B*57:01. Described as above.
Experiment [20] has as its target HLA-A*11:01. Described as above.
Experiment [21] addresses HLA-A*26:03. Described as above. The note with it: source organism: Variola virus.
In experiment [22] the target is HLA-B*83:01. The experiment in a line: IEDB peptide-MHC binding, purified MHC/competitive/fluorescence; filed as Kd, often an IC50 or EC50 that approximates it; ≥ and ≤ were set here for values at or beyond the usual limits of such assays. The note with it: source organism: Homo sapiens.
Experiment [23] addresses HLA-B*15:42. The description is as above. The note with it: source organism: Homo sapiens.
Experiment [24] addresses HLA-A*32:07. The experiment is described as above. The note with it: source organism: Homo sapiens.
In experiment [25] the target is HLA-B*45:06. The description is as above. The note with it: source organism: Homo sapiens.
Experiment [26] addresses HLA-B*73:01. The experiment in a line: IEDB peptide-MHC binding, purified MHC/direct/fluorescence; filed as Kd, often an IC50 or EC50 that approximates it; ≥ and ≤ were set here for values at or beyond the usual limits of such assays. The settings on record: source organism: Homo sapiens.
The target of experiment [27] is HLA-B*39:01. Described as above. The note with it: source organism: Escherichia coli O157:H7 str. EC869.
Experiment [28] concerns the target HLA-A*26:02. The experiment is described as above. The note with it: source organism: Escherichia coli O157:H7 str. EC869.
Experiment [29] addresses HLA-A*03:01. The description is as above. The settings on record: source organism: Escherichia coli O157:H7.
The target of experiment [30] is HLA-C*12:03. Described as above. The settings on record: source organism: Escherichia coli O157:H7 str. EDL933.
Where [31] appears, read: source organism: Escherichia coli O157:H7.
Setting [32] is: source organism: Escherichia coli O157:H7 str. EC869.

With ILQDRIRMY, the Kd in experiment [1] (source organism: Variola virus), in [2], in experiment [3] (source organism: Cowpox virus), in [4] (source organism: Cowpox virus), in experiment [5] (source organism: Cowpox virus) and in experiment [6] (source organism: Cowpox virus) was ≥ 20 µM in each case. Also, the Kd is ≥ 20 µM in experiment [7] (source organism: Variola virus); 0.126 µM in experiment [8] (source organism: Cowpox virus); ≥ 20 µM in [9] (source organism: Variola virus); 0.02 µM in experiment [10] (source organism: Variola virus); ≥ 20 µM in experiment [11] (source organism: Cowpox virus); ≥ 20 µM in experiment [12] (source organism: Cowpox virus). The Kd is ≥ 20 µM in experiment [13] (source organism: Variola virus); 0.737 µM in experiment [14] (source organism: Cowpox virus); ≥ 20 µM in experiment [15] (source organism: Cowpox virus); ≥ 20 µM in experiment [16] (source organism: Cowpox virus); ≥ 20 µM in [17] (source organism: Cowpox virus); ≥ 20 µM in [18] (source organism: Cowpox virus). The Kd in experiment [19] (source organism: Cowpox virus), in [20] (source organism: Cowpox virus) and in [21] was ≥ 20 µM in each case.

Consider MAWLFFWAI, for which the Kd in [22] is ≥ 5 µM; in [23], ≥ 5 µM; in experiment [24], 3.39 µM; in experiment [25], ≥ 5 µM; in [26] it was ≥ 20 µM.

Regarding YQAFRTKVH, the Kd in experiment [1] (source organism: Escherichia coli O157:H7 str. EDL933), in [3] (setting [31]), in experiment [4] (setting [31]), in experiment [5] (setting [31]), in experiment [6] (setting [31]) and in [7] (setting [32]) was ≥ 20 µM each time. Moreover, the Kd in experiment [8] (setting [31]) is 0.01 µM; in experiment [9] (setting [32]), ≥ 20 µM; in [10] (setting [31]), ≥ 20 µM; in experiment [27], ≥ 20 µM; in experiment [11] (setting [31]), ≥ 20 µM; in experiment [12] (setting [31]), ≥ 20 µM. In addition, the Kd in [13] (setting [32]), in [14] (setting [31]), in [28], in experiment [29], in experiment [15] (setting [31]) and in experiment [16] (setting [31]) was ≥ 20 µM each time. Besides, the Kd was ≥ 20 µM in [17] (setting [31]); ≥ 20 µM in experiment [18] (setting [31]); 0.204 µM in experiment [30]; ≥ 20 µM in experiment [19] (setting [31]); ≥ 20 µM in experiment [20] (setting [31]).

One may read the Kd as the free concentration of one partner at which half of the binding sites on the other are occupied at equilibrium, for simple one-to-one binding. The low end stands for higher affinity, the high end for lower affinity.
